From the domain aggregation screens of Martell et al. (2025)

Assay: soluble fraction after stress (log2 fold change); higher = more stays soluble; pooled small domains, quantitative proteomics
Conditions: stress: pH 4
Procedure, shortened: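 Values are log2 fold changes, and higher ones mean more of the domain stayed soluble. Each fold change reflects the soluble amount of a domain after acid stress and is taken as a measure of aggregation propensity. The stress was pH 4, applied to pooled custom libraries of small protein domains analysed by high-throughput quantitative proteomics.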

Sequence | soluble fraction (log2)
HMGVITVRPPIVVRDFAIALNLKPFQVIGNLMELNKVVSVSSVIEEADARKVAERHGYTLEIRH | -0.133
HMGPVPLASAADMEKFYSHLQQVLDEVDFKDRTGSGHLMARLRRLFQRTVLDQNEINILRGILMAVQGRR | -0.959
HMPEPAPALPAKTRVSIRRETGGIIWHEGAWTISPPIRAYDGRWYVAVTTARKGIEFVPVSSVIRS | -0.0262
HMLEPEVLDLIGQVKSVHHFSVTQSHQLEKLVRHAHTLGFEIAELKSLLASSPNAKSLLSSLDQKLEPLRM | 0.0896
HMNTETAVTKAIDQIQVMMDLRNRSVSFTRDQETGTDIIKVIDDNTGDTIRQMPSEELLTFMKNLTQ | -0.332
HMKGPAFAKIDLTQLPAGLTSFLNTNAAGFKLDYAVAITKDSVIIEYHVGVTIGTAKKEFHLDPNFQLLP | -0.1
HMDYRSMSGLQKAALLIMSVGEETAAKLFQLMHDDEIREISQTMANLGTVNATVIERLFVEFADAISS | -0.935
HMAAGADEATTVPNVSGDTLNQAIKSLKAEGLGYMLSGAGARVRDQMPEPGAEMTKGSVVMLYMDGDAEVD | 0.399
HMTVSADIIQKIIKTSTTDENIITIDSISNSISKLALSKITAEDIIEILEASSLVLRNSNGSWTVL | -0.716
HMQEIKPEPISDGRVWKEGMWATTPLGIEGQLLSDPDEKGMVQLGYGNMRININIQDLDPSR | -0.207
HMKPSTVSVPDVSGDKLSTAKMIIRKSGLKVGDVQKIEDDNVGAGKVVRTNPSAGSKKREGSSVDIFVASA | 0.111
HMDESLIEEAKAMILQMKIEGSVRVRSNGLLEFRNPLFGSVYGRSVEELQEKLNKKVREQKSRI | 0.194
HMSETEWGEIYRKVMAAGLIPARSVRERLLALPSIEPLLQAAEAAGSKGMLDETLLDSLLSKT | -0.539
HMRLLAESIARGLDPEGSGGLWAKEAGAEALKLMETLAAEAPHGGSFTAAAYRDLFESLVHQGEVREA | -0.335
HMGPKPVDMSPIPEGQRNQVLHDWMYGRAANHPENWGQIRSDALERGLKSGLKADEIHAITGSVARALGLE | 0.0794
HMSFGWETLEGKEGVTDTDLHPSGWVKVGDEKIFVVSQGEFLGKGTDIVVVSVDGNRVVVKELI | -1.11
HMSQTDTDAKDARQKILALLSDGEWHQKTELLKIDAPKEAVSNAIRYLVLEELISIDHAKVRA | -0.465
HMDLTSDANLKEAKDQILNLLNDGKRHHVTEINKILLPPVQVQEALRFLIHEETVRVDASFLF | -0.083
HMRPHDDHLREQLLGIATETIARTGVEGLSLRTLATDAGTSTSAVYQLFGSRAALLDAVYLRVLE | -0.733
HMYEGLPVTLIIDGRVIEANLAKANRDMAWLERELANSGVRSHHDVFFATLDSRGQLYYQVKN | -1.35
HMHPVTGRIGTVTAANGLNLRADSSEYANVVATLGYGVDVTVTGERINGFYPVRVGTLSGYVSADYVSFNS | -0.299
HMGVISRVITFWQNGFTVDDGPLRAFDDPANMAFMESIGRGEAPAELAPKTRTQRVNINLVQRHEPYSAPK | -0.934
HMDKPIVFLEDTKAHKSSDLQSPVYMTVPKGTIAFVIAEKGDWSQVYAGRVLDRNLASQWVRRGFS | 0.191
HMKVSVPDIMDNSSLRQAEAKLRALGFRVTEPEYISGEKDWVYSVTYKGRTLNAGDKVPHEALLTLHVGNG | ≥ 0.43
HMDGVTEYTVKSGDSFSAIINKHYNVNYDEKLMQAVAAYNNIEDMNKLQLGQIIKLPPKEQLNL | -0.118
HMRASVTYVVQVNGKLRGKLEVAPDIDPEELKKLALEVENVKHSLQGWTVKKVIVIPGKMVSIAAGK | -0.296
HMGVSDDMARGVVRARQFLSDFAAVPLDRMTPAEAVARARQLKSELETDAKHSPWLLDVLSNA | -0.37
HMEKIELKTVIPENLKKKRLDFALSELFPEHSRSRIQSWIKEGSVMVNSKNYRQRDLVDAGDVVEINTEQK | 0.321

Sequence | soluble fraction (log2)
HMAVFRVGDKVKSMEGMIGEVRGINGRLIQVATPYGLRDYYPHQITKVENPLAAAPAPLNEEA | 0.0157
HMNIQPAMLNAANGGVAWKERGISMSQIMKRNAHTAEGSQKLWDYAFENFFQKNIDAGNIRDDR | -0.237
HMKDIIVLGAIQAGIKKFDKIQKMTQIEPEELNSILEQLENRGFIQVAEKSGLLGKKIEILVTEKGSNEVD | -0.484
HMGTHDAGTRFFDNLDSLLQNRDATRADVLAVYLLAVSLGFRGKHRSVSSAPQIAHYRNQAYVTLFQ | -0.386
HMTMGAAEAQALKDEALELYRTGGTQEDVVRAIEMYEQAAEAGNAQAASDLAYLKANGVYETAMNN | -0.75
HMDTSKIDYSEFITMLDKGEVESVVLKSDTLTVTLKHGTGMAAQTKTVTLMEDLSELTKRLEKAGVKSFDK | 0.176
HMTITPEVIVNHFKNLDLFFTKNGNYYEFKKKGTENILFKYGIYKQKPNIFVKIQRYPISSLSDLERIPI | -0.159
HMSKQLGFKIKTARRKLNISQGDLSKKLEISPSYLNLIESGKRKVSTDLLMKASEILNLDLKKL | ≥ 0.43
HMATQTGTVKWFNEGKGFGFIAPDDGSKDLFAHFSEIKTTGFKTLAEAQRVEFEVTEGRKGLQASNIK | -0.244
HMTEELLNQRKETMLALLNDPTYVPMKLKELAMLLNLSRDQRDELREVMESLEQDGKVILTKRGKYKIP | -0.255
HMKSERHALILSLIEKKNVETQEDLAELLKERGVAVTQATVSRDIKELRLIKVLSETGGYKYATVDKAE | 0.109
HMSSLTDNFVKALSYYLALSGKSKKEVADGIGIPPTTFSSWSNGKHLPDMDRLQNLATYLGAPVSEFFDFT | 0.051
HMISKWGELVDLAVQLDIIQKSGSWFSMGDERIGQGANSVKDYLIANPDIAEKVEAEVRENLWKLN | -0.351
HMDIVEIYVGEEDGERIDSYLAQELNNVSRSYVQGLIKNQLITVNGNHVKPKHIVKEGEHIIVNIPPPKV | -0.108
HMKDEHYLYIKARVDNGDYPHLSELKSAEEIELVMPKLLQDGIVEFNKETGEYTIGEDVKAEIERL | -1.02
HMRPLTPLEKLTPDADGKYYHIVQSGETLSWIAKLYETTAEKLQAWNNLFSSDIFPNQKLLLQVTPP | -0.123
HMQISDAGALLDAVRRVLAENPAQVEQFRAGKEKVMGFLVGQVMRATGGKANPQMLNDVLREELS | 0.198
HMSYLDTLPGRRVAAQGAITGDAGTLAVDGDTWSARVEPGAPDVAPGDEVTVLRIDGATLVVRPLP | 0.0453
HMRRRKPLVSYEYGTRVYAPSEGEPRYRVVATDADGQRVFAKFSSEEAARHRAREIEGRLATS | 0.0937
HMQLSMLPYGFARRHGVLLVEQDEQPTLIHRAGITATVIAEVQRVAGQIDAWRLVDDARFDQQLAEVYRD | -1.41
HMVSGSPTVDILMQRGLEYQQQENLEAARDAFDRAINLKPDYAEAWNRRAVLFFNEGKYDEAIADLETAIT | -0.0941
HMPHITDAEWEVMRVVWANHHVTSKEVISILEDKMNWKATTIKTLLGRLVEKGALSTEQDGKKFIYTAR | -0.622
HMVVVMNADAEADEIKRVKWNLEQMLFRTQVIYGVKRIVIGAIGDQREVDLSEIEQMPKVDKIVRISK | -1.39
HMRIEYYDDEELDRYIGTPASGYREAAVEEFREILLTLDADDVPGWVRSLQLRGIEFPESLRPELYL | -1.5
HMSPILTPDQATKAYGKDGVLYIHSNKERTIYIYDVTGRTVRILEAVEGENQINGLEKGIYFLEGQKVAV | -0.378
HMEAVLTISPGMYSESVSAELVRLGIITNQKEFNSYLVNNGYAERIQTGDFKIKADMSYDEIARIITK | -0.489
HMKININEASRYELMTIGGLDAGRADMLMQYRQKREISSADELKGINGFASYDTAKLQKSFEISP | 0.00275
